# Laboratory results published in the MegaScale stability set (Tsuboyama et al. 2023).
# B1: r4_43_TrROS_Hall (parent)
# chain: DLVTIKVPLENLEEIKKAAEKAGFKIVSISYDKENKEVTIVIEKKK
# Variants of: B1
# Test: folding stability dG (cDNA display proteolysis); higher = more stable
# Details: PBS, room temperature
row,Variant,folding stability dG [kcal/mol]
1,A19P,1.44
2,A19C,3.44
3,A19Y,3.68
4,A19M,3.95
5,E34L,4.04
6,E34F,3.67
7,E34C,3.63
8,I15W,4.14
9,I15A,4.01
10,I15R,3.42
11,K6D,2.82
12,K6N,3.37
13,L2R,3.58
14,L2G,3.42
15,L2S,3.39
16,L2Y,4.08
17,L2Q,3.85
18,L2E,3.45
19,F24W,3.68
20,F24T,2.88
21,F24N,2.56
22,F24S,2.69
23,F24A,3.19
24,F24H,2.73

row,Variant,folding stability dG [kcal/mol]
1,I5C,3.01
2,I5V,3.79
3,I5R,3.1
4,I5S,2.9
5,I5N,2.61
6,K36M,3.22
7,K36P,3.39
8,K36S,3.46
9,K36T,3.48
10,V3K,3.45
11,V3E,3.1
12,V3M,3.66
13,V3T,3.66
14,V3P,2.93
15,T39S,3.54
16,L9Q,3.49
17,Y31L,3.12
18,Y31V,3.47
19,Y31M,3.19
20,Y31C,3.37
21,Y31E,3.29
22,Y31T,3.15
23,D32G,3.82
24,D32M,3.48

row,Variant,folding stability dG [kcal/mol]
1,D32Y,3.65
2,D32V,3.33
3,E10I,3.86
4,E10C,3.35
5,E10W,3.79
6,E10Y,3.77
7,E10M,4.03
8,K21C,3.87
9,K21Q,3.9
10,K21A,3.79
11,K21Y,4.25
12,K21D,3.16
13,K33Y,3.42
14,K33I,3.85
15,K33Q,3.83
16,K33T,3.41
17,K33W,3.76
18,S28V,3.22
19,S28T,3.48
20,S28A,3.71
21,K45D,3.94
22,K45S,3.72
23,V27S,3.35
24,P8K,3.71

row,Variant,folding stability dG [kcal/mol]
1,P8V,3.72
2,P8Y,3.62
3,E20I,3.65
4,E20Y,3.92
5,E20V,3.56
6,E20Q,3.28
7,I26P,1.96
8,I26H,1.53
9,I26M,3.31
10,I26Y,2.52
11,I26Q,2.02
12,I26D,1.25
13,I29S,2.98
14,I29T,3.56
15,I29F,4.07
16,T4S,3.78
17,T4G,3.14
18,K46N,3.49
19,K46F,4.31
20,K46I,3.61
21,L12G,3.16
22,L12N,2.46
23,L12S,3.38
24,K16L,3.61

row,Variant,folding stability dG [kcal/mol]
1,K16R,3.37
2,K16P,1.97
3,K16T,3.88
4,E13V,3.61
5,E13M,3.68
6,I42Q,2.84
7,I42Y,4.47
8,K44Q,3.52
9,K44R,3.83
10,K44H,3.73
11,K25A,3.12
12,K25R,4.04
13,K25L,3.05
14,K25D,2.73
15,K25Y,3.88
16,V41W,4.13
17,V41T,3.42
18,V41N,3.34
19,V41E,3.48
20,V41F,3.76
21,V41G,3.4
22,E37I,3.85
23,E37Y,3.9
24,E37P,2.62

row,Variant,folding stability dG [kcal/mol]
1,E37V,4.14
2,E37C,3.8
3,D1N,3.79
4,D1R,3.42
5,D1T,3.83
6,D1L,3.84
7,V7D,1.97
8,N11W,3.63
9,N11V,3.87
10,N11S,3.42
11,N11D,3.4
12,N11G,3.34
13,N11P,2.5
14,N11Q,3.76
15,N11F,3.59
16,I40N,-0.494
17,I40W,1.82
18,I40G,0.285
19,V38K,1.02
20,V38L,3.71
21,V38N,2.11
22,N35M,3.93
23,A22H,3.64
24,A22P,2.38

row,Variant,folding stability dG [kcal/mol]
1,A22G,3.52
2,A22S,3.56
3,A22E,3.2
4,A22M,3.68
5,S30R,3.62
6,S30M,3.49
7,S30D,3.5
8,S30T,3.66
9,S30V,3.96
10,K17M,3.82
11,K17D,3.44
12,K17V,3.69
13,K17L,3.73
14,K17A,3.56
15,A18C,3.97
16,A18S,3.65
17,A18M,3.94
18,E43T,3.92
19,E43K,3.36
20,G23K,3.73
21,G23T,3.23
22,G23Q,3.51
23,G23W,3.67
